The results in this text go back to patent US20200317791A1 (Janssen / Centocor, published 2020).

The term Kd denotes the equilibrium constant for the complex coming apart. Read a low Kd as tighter binding. The koff is a measure of how fast the partners let go of each other. Higher therefore signals a short-lived complex. In general, kon refers to a measure of how fast the partners come together. A lower kon goes with slower complex formation.

Assay [1] deals with T1, A24_A*24:02 (human, UniProt A*24:02).
T1 construct: on LABScreen bead; also called HLA-A*24:02 (LABScreen class I bead)
T1 heavy chain: not shown
Briefly: LABScreen beads.

The target in assay [2] is T2, HLA-Cw6/TRAT on K562-rhHLA-Cw6 cells loaded with TRAT peptide (human, UniProt P10321 25-366).
T2 MHC heavy: […]
T2 peptide: TRATKMQVI
The assay is described as follows: cell-based or functional assay.

Assay [3] addresses T1, A24_A*24:02. The assay is described as follows: LABScreen beads.
For assay [4], the target named is T1, A24_A*24:02. The assay is described as follows: LABScreen beads.
The next assay deals with CW6W55.ECO.PP.002. Briefly: SPR Biacore 8K, captured mAb; Acceptable fit.
The target of a further assay is CW6W56.ECO.PP.001. The assay is described as follows: SPR Biacore 8K, captured mAb; Acceptable fit.
For another assay, the target named is CW6W54.001. Briefly: SPR Biacore 8K, captured mAb; Kinetic fit not valid. Background: In SPR one partner is held on a chip, and binding of the other changes the refractive index at the surface.

Where two headings read alike, the source gives them in different places.

B1: CW6B237 (antibody, V domains shown)
VH: QVTLKESGPVLVKPTETLTLTCTVSGFSLSNARMGVSWIRQPPGKALEWLAHIFSHDEKFYSTFLKSRLTISKDTSKSQVVLMMTNMDPVDTATYYCARIILSSSGHDAFDIWGQGTMVTVSS
VL: AIQMTQSPSSLSASVGDRVTITCRASQDIRHNLGWYQQKPGKAPNLLIYAASSLQSGVPSRFSGSGSGTDFILTISSLQPEDFATFFCLQDYIYPLTFGGGTKVEIK
notes: also called CW6B237.001; CW6M237 (DNA ID)
As to B1, the binding result with A24_A*24:02 [1] is “no binding (tested: 10 µg/ml)”. Also, in assay [2], the “IC50 (read off the curve)” value is approximately 0.3 µg/mL.

B2: CW6B238 (antibody, V domains shown)
VH: QVTLKESGPVLVKPTETLTLTCTVSGFSLNNARMGVSWIRQPPGKALEWLAHMFSSDEKFYRTSLKSRLTISKDTSKSQVVLTMTNMDPVDTATYYCARISLYSSGHDTFDLWGQGTMVTVSS
VL: AIQMTQSPSSLSASVGDRVTITCRASQDIRNTLGWYQQKPGKAPNLLIYAASSLQSGVPSRFSGSGSGTDFTLTISSLQPEDFATYYCLQDYDYPLTFGGGTKVEIK
notes: also called CW6B238.001; CW6M238 (DNA ID)
For the molecule B2, the binding result with A24_A*24:02 [3] was “no binding (tested: 10 µg/ml)”.

B3: CW6B230 (antibody, V domains shown)
VH: QVQLQESGPGLVKPSETLSLTCTVSGNSISNYYWSWIRQPAGKGLEWIGRIYITGNTNYNPSLKSRVTMSLDTSKNQFSLKLSSVTAADTAVYYCARLSGIDAFDIWGQGTMVTVSS
VL: DIQMTQSPSTLSASVGDRVTFTCQASQDITKYLNWYQQKPGKAPKLLIYDASNLETGVPSRFSGSGSGTDFTFTISSLQPEDFATYYCQQYDDLPITFGQGTRLEIK
notes: also called CW6B230.001; CW6M230 (DNA ID)
For the molecule B3, the binding result in the assay with A24_A*24:02 [4] is on record as “no binding (tested: 10 µg/ml)”. In the assay with CW6W55.ECO.PP.002, this molecule came in with a dissociation constant (Kd) of 8.9 nM, a koff of 0.00655 s⁻¹ and an on-rate constant (kon) of 737000 M⁻¹ s⁻¹. Also, in the assay with CW6W56.ECO.PP.001, the Kd was determined as 2.07 nM, the off-rate (koff) was 0.00295 s⁻¹ and the on-rate constant (kon) worked out at 1.42e+06 M⁻¹ s⁻¹. In the assay with CW6W54.001, this molecule yielded a dissociation constant Kd of 1.4 nM, a koff of 0.000655 s⁻¹ and a kon of 467000 M⁻¹ s⁻¹.
